This experiment deals with T1, monkey HER3 antigen (monkey).
T1 construct: also called HER3 (monkey)
Kind of experiment: BIAcore (SPR). (SPR reads the build-up and loss of mass on a sensor chip optically.)

This is an account of results in patent publication US20200010522A1 (SALUBRIS BIOTHERAPEUTICS, published 2020).

B1: anti-HER3 mAb/NRG-1 fusion protein (recombinant fusion protein, with Fc mutations) (antibody, human IgG1, kappa)
heavy: QVQLQQWGAGLLKPSETLSLTCAVYGGSFSGYYWSWIRQPPGKGLEWIGEINHSGSTNYNPSLKSRVTISVETSKNQFSLKLSSVTAADTAVYYCARDKWTWYFDLWGRGTLVTVSSASTKGPSVFPLAPSSKSTSGGTAALGCLVKDYFPEPVTVSWNSGALTSGVHTFPAVLQSSGLYSLSSVVTVPSSSLGTQTYICNVNHKPSNTKVDKRVEPKSCDKTHTCPPCPAPEFLGGPAVFLFPPKPKDTLMISRTPEVTCVVVDVSHEDPEVKFNWYVDGVEVHNAKTKPREEQYNSTYRVVSVLTVLHQDWLNGKEYKCKVSNKALPAPIEKTISKAKGQPREPQVYTLPPSREEMTKNQVSLTCLVKGFYPSDIAVEWESNGQPENNYKTTPPVLDSDGSFFLYSKLTVDKSRWQQGNVFSCSVMHEALHAHYTQKSLSLSPGKGGGGSGGGGSSHLVKCAEKEKTFCVNGGECFMVKDLSNPSRYLCKCPNEFTGDRCQNYVMASFYKAEELYQ
light: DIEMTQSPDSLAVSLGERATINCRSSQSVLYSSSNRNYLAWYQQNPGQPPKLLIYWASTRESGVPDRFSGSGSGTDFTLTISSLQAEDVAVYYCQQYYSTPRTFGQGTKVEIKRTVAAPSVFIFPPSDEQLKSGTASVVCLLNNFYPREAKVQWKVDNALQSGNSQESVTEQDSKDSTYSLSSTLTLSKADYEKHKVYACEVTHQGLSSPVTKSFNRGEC
notes: Made in CHO-derived HD-BIOP3 cells; also called the recombinant fusion protein disclosed herein; recombinant anti-HER3 mAb/NRG-1 fusion protein; copies: 2 + 2
With B1, the affinity, expressed as Kd, was 0.397 nM.
